{"source": "patent US20130224191A1", "about": "“NOTUM PROTEIN MODULATORS AND METHODS OF USE” (priority 2010, published 2013)", "molecules": {"B1": {"name": "SC2.D2.2 (antibody, V domains shown)", "VH": "DVQLVESGGGLVQPGGSRKISCAASGFTFSSYGMHWVRQAPEKGLEWVAYISSSTVTTYYADTVKGRFTISRDNANNTLFLQMTSLRSEDTAMYYCSRQNWDGGYFDVWGAGTTVTVSS", "VL": "DIVLTQSLASLAVSLGQRATISCRASKSVSSSGYSYMHWYQQKPGQPPKLLIYLASNLESGVPARFSGSGSGTDFTLNIHPVEEEDAATYYCQHSRALPLTFGAGTKLELKR", "notes": "also called murine SC2.D2.2"}}, "key": {"human Notum D141N, D141S": {"system": "human Notum D141N, D141S", "experiment": "Neutralization of point mutated human Notum, 4-MUH assay", "assay_type": "biochemical", "procedure": "In addition to the assays described in Examples 23 and 24, a fluorescent esterase substrate, 4-methylumbelliferyl heptanoate (Sigma), can be used to measure the activity of hydrolases using standard assay conditions (Richardson and Smith, 2007, PMID: 17620441; Jacks and Kircher, 1967, PMID: 5582971). Briefly, 4-MUH was dissolved in DMSO to a final concentration of 1.2 mM. This substrate was diluted 1:10 into assay buffer (0.1M Tris, pH 7.5, 50 mM NaCl, 0.05% Brij) and incubated with defined amounts of Notum enzyme or point-mutated Notum enzymes, and enzymatic release of the fluorescent molecule 4-methylumbelliferone monitored (355 nm excitation, 460 nm emission) using a Wallac Victor3 Multilabel Counter (Perkin Elmer).\nSimilarly, the macaque residue at this position was point mutated to the human residue (N141D). […] However, these point mutants differed in their ability to be neutralized by SC2.D2.2 (FIG. 26)."}, "murine Notum-His": {"target": "T1, murine Notum-His (Mus musculus, UniProt Q8R116)", "T1 construct": "His tag; made in house", "T1 sequence (Q8R116 20-503)": "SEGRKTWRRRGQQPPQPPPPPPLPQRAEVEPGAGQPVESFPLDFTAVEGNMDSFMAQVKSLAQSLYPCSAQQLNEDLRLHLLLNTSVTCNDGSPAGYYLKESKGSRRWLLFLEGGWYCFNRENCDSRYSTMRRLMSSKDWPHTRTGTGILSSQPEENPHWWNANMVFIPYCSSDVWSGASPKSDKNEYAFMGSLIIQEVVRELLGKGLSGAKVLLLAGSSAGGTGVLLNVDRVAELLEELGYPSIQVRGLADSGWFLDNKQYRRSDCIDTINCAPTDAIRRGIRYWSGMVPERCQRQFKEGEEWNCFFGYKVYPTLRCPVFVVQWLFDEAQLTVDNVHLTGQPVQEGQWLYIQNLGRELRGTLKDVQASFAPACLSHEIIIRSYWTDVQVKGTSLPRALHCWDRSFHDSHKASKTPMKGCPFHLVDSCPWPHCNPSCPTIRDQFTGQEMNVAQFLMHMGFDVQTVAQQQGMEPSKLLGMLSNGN", "experiment": "Neutralization of murine Notum in 293.TCF assay", "assay_type": "cell-based", "procedure": "Using the 293.TCF cells, purified SC2.D2.2 and SC2.A106 antibodies were tested for their ability to neutralize murine Notum-His or macaque Notum-Fc activity as follows. 2.5×10^4 293.TCF cells were plated per well of a 96-well tissue culture plate in 50 μL of serum-free medium. After 23 hours of serum starvation, 10 μL of DMEM+0.2% FBS containing the Notum proteins at various concentrations were mixed with 15 μL of purified antibody at various concentrations, and allowed to incubate for 5 minutes at room temperature. The 25 μL antibody/Notum mixture was then added to the 293.TCF cells. After 1 hour, 25 μL of Wnt3A or control L-cell CM were added to each well. Eighteen hours after addition of CM, 100 μL of One-Glo solution (ProMega Corp.) was added to each well. The contents of each well were mixed thoroughly to lyse the cells, 100 μL of lysate transferred to black 96-well plates, and the luminescence read after 5 minutes."}, "Notum": {"target": "T2, Notum (Homo sapiens, UniProt Q6P988)", "T2 sequence (Q6P988 20-496)": "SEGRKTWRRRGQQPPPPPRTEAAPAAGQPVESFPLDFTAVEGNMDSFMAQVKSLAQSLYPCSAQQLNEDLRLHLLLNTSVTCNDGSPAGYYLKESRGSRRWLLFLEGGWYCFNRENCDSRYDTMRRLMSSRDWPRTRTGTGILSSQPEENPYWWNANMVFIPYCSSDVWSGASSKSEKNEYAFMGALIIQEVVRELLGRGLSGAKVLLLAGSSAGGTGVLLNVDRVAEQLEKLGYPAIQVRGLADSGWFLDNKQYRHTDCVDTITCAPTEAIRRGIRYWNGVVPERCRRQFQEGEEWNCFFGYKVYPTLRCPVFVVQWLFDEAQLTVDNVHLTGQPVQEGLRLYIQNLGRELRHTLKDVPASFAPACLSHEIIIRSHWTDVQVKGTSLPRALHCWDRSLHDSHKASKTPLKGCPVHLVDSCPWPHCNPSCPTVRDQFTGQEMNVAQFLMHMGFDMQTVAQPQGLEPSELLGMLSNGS", "experiment": "Epitope mapping ELISA, human Notum", "assay_type": "binding", "parameters": "made in house", "procedure": "Binding of SC2.D2.2 and other mouse mAbs to purified Notum molecules generated from transient transfection of Human and Mouse Notum cDNAs were tested using ELISA assay with human Notum, mouse Notum and chimeric human/mouse Notum coated directly on ELISA plate. Binding of anti-Notum mAbs was detected with HRP-conjugated goat anti mouse antibody and followed by colorimetric horseradish peroxidase substrate (TMB substrate Thermo Scientific). The absorbance of each well of the ELISA plates was measured at 450 nm on a microplate autoreader."}}, "note": "Entries after “also recorded” stand apart in the source; their conditions may differ."}
{"molecule": "B1", "values": [{"measurement": "neutralization of mutant Notum protein", "setting": "human Notum D141N, D141S", "value": "eliminated the ability of SC2.D2.2 to neutralize the resultant protein"}, {"measurement": "inhibition of murine Notum activity", "setting": "murine Notum-His", "value": "did not inhibit; also recorded: without inhibiting murine or macaque versions of the protein"}, {"measurement": "binding to human Notum", "setting": "Notum", "value": "confirmed the binding"}]}
